Experimental data published in patent US8637024 (dated 2014).
Numbering of substitutions follows the chain as printed. Numbers in names are those of the source.

B1: SQTLH (clone 33) (antibody, V domains shown)
VH: QVQLQQSGPEVVKPGASVKMSCKASGYTFTSQTLHWVRQKPGQGLDWIGYINPYNDGTDYDEKFKGKATLTSDTSTSTAYMELSSLRSEDTAVYYCAREKDNYATGAWFAYWGQGTLVTVSS
VL: DIVMTQSPDSLAVSLGERVTMNCKSSQSLLYSTNQKNYLAWYQQKPGQSPKLLIYWASTRESGVPDRFSGSGSGTDFTLTISSVQAEDVAVYYCQQYYSYRTFGGGTKLEIK
B2: M24 (CDR-H1 EQTLH) (antibody, V domains shown)
VH: B1 VH with S31E
VL: B1 VL
B3: SQTIH (clone 23) (antibody, V domains shown)
VH: B1 VH with L34I
VL: B1 VL
B4: EYTFH (clone 40) (antibody, V domains shown)
VH: B1 VH with S31E, Q32Y, L34F
VL: B1 VL
B5: GQTLH (clone 25, 37) (antibody, V domains shown)
VH: B1 VH with S31G
VL: B1 VL
B6: M22 (CDR-H1 DYTIH) (antibody, V domains shown)
VH: B1 VH with S31D, Q32Y, L34I
VL: B1 VL
B7: AQTLH (clone 30) (antibody, V domains shown)
VH: B1 VH with S31A
VL: B1 VL
B8: M28 (CDR-H1 DYTFH) (antibody, V domains shown)
VH: B1 VH with S31D, Q32Y, L34F
VL: B1 VL
B9: NQTLH (clone 26, 36) (antibody, V domains shown)
VH: B1 VH with S31N
VL: B1 VL
B10: DQTLH (clone 27, 31) (antibody, V domains shown)
VH: B1 VH with S31D
VL: B1 VL
B11: ML1 (CDR-H1 SRVLS) (antibody, V domains shown)
VH: B1 VH with Q32R, T33V, H35S
VL: B1 VL
B12: ML29 (antibody, V domains shown)
VH: B1 VH with Q32Y, T33V, L34I, N102S, Y103L, A104T
VL: B1 VL
B13: ML26 (antibody, V domains shown)
VH: B1 VH with Q32Y, T33V, L34I, E99Q, K100A, D101A
VL: B1 VL
B14: ML11 (antibody, V domains shown)
VH: B1 VH with Q32Y, T33V, L34I, A97V, N102S, Y103F
VL: B1 VL
B15: ML28 (antibody, V domains shown)
VH: B1 VH with Q32Y, T33V, L34I, T105V, G106P, A107G
VL: B1 VL
B16: M3 (CDR-H1 EYTIH) (antibody, V domains shown)
VH: B1 VH with S31E, Q32Y, L34I
VL: B1 VL
B17: E95A (antibody, V domains shown)
VH: B1 VH with Q32Y, T33V, L34I, E99A
VL: B1 VL
B18: iMabΔm36 (iMab arm) (antibody)
chain 1: MEWSGVFMFLLSVTAGVHSQVQLQQSGPEVVKPGASVKMSCKASGYTFTSYVIHWVRQKPGQGLDWIGYINPYNDGTDYDEKFKGKATLTSDTSTSTAYMELSSLRSEDTAVYYCARAKDNAATGAWFAYWGQGTLVTVSSASTKGPSVFPLAPSSKSTSGGTAALGCLVKDYFPEPVTVSWNSGALTSGVHTFPAVLQSSGLYSLSSVVTVPSSSLGTQTYICNVNHKPSNTKVDKKVEPKSCDKTHTCPPCPAPEFEGGPSVFLFPPKPKDTLMISRTPEVTCVVVDVSHEDPEVKFNWYVDGVEVHNAKTKPREEQYNSTYRVVSVLTVLHQDWLNGKEYKCKVSNKALPASIEKTISKAKGQPREPQVYTLPPSRDELTKNQVSLTCLVKGFYPSDIAVEWESNGQPENNYKTTPPVLDSDGSFFLYSKLTVDKSRWQQGNVFSCSVLHEALHSHYTQKSLSLSPGKLEGGGGSGGGGSGGGGSGQVQLVQSGGGLVQPGGSLRLSCAASAFDFSDYEMSWVRQAPGKGLEWIGEINDSGNTIYNPSLKSRVTISRDNSKNTLYLQMNTLRAEDTAIYYCAIYGGNSGGEYWGQGTLVTVSS
chain 2: not shown
B19: m36 (antibody, V domains shown)
VH: QVQLVQSGGGLVQPGGSLRLSCAASAFDFSDYEMSWVRQAPGKGLEWIGEINDSGNTIYNPSLKSRVTISRDNSKNTLYLQMNTLRAEDTAIYYCAIYGGNSGGEYWGQGTLVTVSS

Biological target: T1, human soluble CD4 (sCD4) (human, UniProt P01730)
Assay: not given

Kd	Binder
0.012 nM	B1
0.0097 nM	B2
0.0192 nM	B3
0.0112 nM	B4
0.0173 nM	B5
0.0346 nM	B6
0.0107 nM	B7
0.0132 nM	B8
0.0406 nM	B9
0.015 nM	B10

Biological target: T1, human soluble CD4 (sCD4)
Assay: not given
Remark: another data set of the same source

Kd	Binder
0.012 nM	B1
0.0097 nM	B2
0.0192 nM	B3
0.0112 nM	B4
0.0346 nM	B6
0.0107 nM	B7
0.0132 nM	B8
2.13 nM	B11
2.23 nM	B12
3.64 nM	B13
2.47 nM	B14
1.41 nM	B15
0.015 nM	B10

Biological target: T1, human soluble CD4 (sCD4)
Assay: SPR

Kd	Binder
0.0042 nM	B2
2.14 nM	B11
4.83 nM	B12
4.14 nM	B13
6.72 nM	B14
1.76 nM	B15

Biological target: T1, human soluble CD4 (sCD4)
Assay: SPR
Remark: another data set of the same source

Kd	Binder
0.018 nM	B2
0.033 nM	B16
7.7 nM	B17
0.047 nM	B6
0.014 nM	B8

Biological target: T1, human soluble CD4 (sCD4)
Assay: competition ELISA

binding result	Binder
no binding	B18
no binding	B19
